US20240009242A1 (STARKAGE THERAPEUTICS, published 2024)
Positions count from the first letter of the chain named. In names and notes the source's numbering stands. Ends that are not written are not given here.

How the values were obtained:
[1] = target: human DPP4 on the surface of fibroblasts (human) (UniProt P27487); test: flow cytometry on GM21808 fibroblasts treated with etoposide; 0.5 µg per test; anti-6xHis tag PE secondary
[2] = target: human DPP4 on the surface of fibroblasts (human) (UniProt P27487); test: flow cytometry on untreated GM21808 fibroblasts; 0.5 µg per test; anti-6xHis tag PE secondary
[3] = target: human DPP4 on the surface of fibroblasts (human) (UniProt P27487); test: flow cytometry on COPD human lung fibroblasts; 0.5 µg per test; anti-6xHis tag PE secondary
[4] = target: human DPP4 on the surface of fibroblasts (human) (UniProt P27487); test: flow cytometry on IPF human lung fibroblasts; 0.5 µg per test; anti-6xHis tag PE secondary
[5] = target: human DPP4 on the surface of fibroblasts (human) (UniProt P27487); test: flow cytometry on NHLF (normal human lung fibroblasts); 0.5 µg per test; anti-6xHis tag PE secondary
[6] = target: human DPP4 on the surface of fibroblasts (human) (UniProt P27487); test: flow cytometry on Wi-38 fibroblasts (PDL<20); 0.5 µg per test; anti-6xHis tag PE secondary
[7] = target: T1, human DEP1 on the surface of fibroblasts (human) (UniProt Q12913); test: flow cytometry on GM21808 fibroblasts treated with etoposide; 0.5 µg per test; anti-6xHis tag PE secondary
T1 sequence: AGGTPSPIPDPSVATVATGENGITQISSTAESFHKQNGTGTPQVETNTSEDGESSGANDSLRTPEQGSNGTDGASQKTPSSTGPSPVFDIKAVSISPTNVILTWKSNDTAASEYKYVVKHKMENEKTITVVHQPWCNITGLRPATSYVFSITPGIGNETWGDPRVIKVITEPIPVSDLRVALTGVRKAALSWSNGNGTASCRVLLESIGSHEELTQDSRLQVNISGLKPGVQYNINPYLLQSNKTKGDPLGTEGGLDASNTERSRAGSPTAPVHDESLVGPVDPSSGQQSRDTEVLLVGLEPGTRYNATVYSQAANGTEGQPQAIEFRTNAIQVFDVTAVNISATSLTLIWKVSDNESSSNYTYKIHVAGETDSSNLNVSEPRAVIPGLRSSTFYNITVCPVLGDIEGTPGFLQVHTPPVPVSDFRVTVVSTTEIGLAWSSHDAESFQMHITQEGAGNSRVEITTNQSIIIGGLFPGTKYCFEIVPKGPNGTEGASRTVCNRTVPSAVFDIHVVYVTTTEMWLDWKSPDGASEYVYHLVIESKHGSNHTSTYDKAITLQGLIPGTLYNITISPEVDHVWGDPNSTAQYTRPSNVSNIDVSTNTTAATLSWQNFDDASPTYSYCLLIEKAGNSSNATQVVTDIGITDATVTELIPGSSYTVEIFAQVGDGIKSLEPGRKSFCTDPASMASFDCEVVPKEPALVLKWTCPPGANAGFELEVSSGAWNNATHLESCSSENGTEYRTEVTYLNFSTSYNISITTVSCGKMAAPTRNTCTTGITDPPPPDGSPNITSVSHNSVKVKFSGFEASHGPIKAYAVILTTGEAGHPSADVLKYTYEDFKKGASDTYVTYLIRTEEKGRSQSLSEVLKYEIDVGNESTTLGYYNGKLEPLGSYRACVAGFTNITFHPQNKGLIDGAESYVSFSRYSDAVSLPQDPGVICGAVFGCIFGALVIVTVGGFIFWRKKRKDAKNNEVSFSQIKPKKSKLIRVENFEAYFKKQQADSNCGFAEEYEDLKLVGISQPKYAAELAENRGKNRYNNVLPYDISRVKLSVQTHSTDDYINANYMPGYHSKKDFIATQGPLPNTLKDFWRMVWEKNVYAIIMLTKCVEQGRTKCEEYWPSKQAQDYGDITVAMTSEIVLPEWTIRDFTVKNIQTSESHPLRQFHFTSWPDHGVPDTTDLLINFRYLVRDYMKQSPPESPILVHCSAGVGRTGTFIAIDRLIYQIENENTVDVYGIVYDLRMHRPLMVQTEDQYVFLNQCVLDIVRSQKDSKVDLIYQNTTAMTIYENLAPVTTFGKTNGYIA

[8] = target: T1, human DEP1 on the surface of fibroblasts (human); test: flow cytometry on untreated GM21808 fibroblasts; 0.5 µg per test; anti-6xHis tag PE secondary
[9] = target: T1, human DEP1 on the surface of fibroblasts (human); test: flow cytometry on COPD human lung fibroblasts; 0.5 µg per test; anti-6xHis tag PE secondary
[10] = target: T1, human DEP1 on the surface of fibroblasts (human); test: flow cytometry on IPF human lung fibroblasts; 0.5 µg per test; anti-6xHis tag PE secondary
[11] = target: T1, human DEP1 on the surface of fibroblasts (human); test: flow cytometry on NHLF (normal human lung fibroblasts); 0.5 µg per test; anti-6xHis tag PE secondary
[12] = target: T1, human DEP1 on the surface of fibroblasts (human); test: flow cytometry on Wi-38 fibroblasts (PDL<20); 0.5 µg per test; anti-6xHis tag PE secondary
hDEP1 Peptide #4 = target: T2, hDEP1 Peptide #4 (human, also: conjugated to BSA); test: ELISA, soluble scFv produced in microtiter plate
T2 construct: also called hDEP1 Peptide #4/BSA
T2 peptide: ADVLKYTYEDFKKGASDT
Protocol: 96 isolated clones from the second, third and fourth rounds of panning were hand-picked and used to produce the respective soluble scFv in microtiter plate. Each clone was then tested in ELISA against hDEP1 Peptide #4/BSA.

human DPP4 on the surface of fibroblasts (human), sequence (P27487 whole entry): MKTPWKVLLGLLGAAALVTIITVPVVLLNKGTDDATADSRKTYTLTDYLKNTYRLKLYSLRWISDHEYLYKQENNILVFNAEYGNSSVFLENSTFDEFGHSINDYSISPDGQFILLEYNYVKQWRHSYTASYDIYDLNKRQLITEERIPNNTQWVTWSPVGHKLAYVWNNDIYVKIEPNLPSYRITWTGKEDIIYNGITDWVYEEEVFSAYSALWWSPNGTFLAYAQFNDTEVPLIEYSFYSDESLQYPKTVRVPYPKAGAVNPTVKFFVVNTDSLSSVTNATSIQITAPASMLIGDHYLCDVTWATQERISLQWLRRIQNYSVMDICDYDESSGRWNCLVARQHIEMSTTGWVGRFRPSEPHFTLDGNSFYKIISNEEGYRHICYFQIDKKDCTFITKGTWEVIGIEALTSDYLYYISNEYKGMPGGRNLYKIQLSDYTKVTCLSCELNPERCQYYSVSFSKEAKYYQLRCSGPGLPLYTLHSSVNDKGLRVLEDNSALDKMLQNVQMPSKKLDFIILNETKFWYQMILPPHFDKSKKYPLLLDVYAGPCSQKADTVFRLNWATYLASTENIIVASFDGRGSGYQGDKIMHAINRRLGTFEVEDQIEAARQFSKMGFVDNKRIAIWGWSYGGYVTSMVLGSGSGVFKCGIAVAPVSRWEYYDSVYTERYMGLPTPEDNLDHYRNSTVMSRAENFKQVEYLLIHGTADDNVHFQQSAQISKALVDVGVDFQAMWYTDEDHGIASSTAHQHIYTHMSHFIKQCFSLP

B1: 5826-13-R3A-D5 (scFv, part only; not given: linker and His-Flag tag, V domains shown, not shown: another chain or arm of the molecule; small tags and cut ends)
VH: EVKLVESGPGLVKPSQSLSLTCSVTGYFITGNYLAWIRKFPGNKMEWIGHIKSSGTTTYNPSLKSRVSITRDTSKNQFFLQLNSVTSEDTATYYCARHGHYVMDVWGQGASVTVSS
VL: DIVLTQSPVLAVSLGQRATISCRASQSVSTSTYNFMHWYQQKPGQQPRLLIYDASHLASSVPARFSGSGSGTDFTLTINPVQADDIATYYCQQSRELPLTFGSGTKLEIK
MFI [1]: 2730 | percentage of positive cells [1]: 16.1% | MFI [2]: 1210 | percentage of positive cells [2]: 5.02% | MFI [3]: 4060 | percentage of positive cells [3]: 10.7% | MFI [4]: 11500 | percentage of positive cells [4]: 62.7% | MFI [5]: 1740 | percentage of positive cells [5]: 2.02% | MFI [6]: 581 | percentage of positive cells [6]: 0%

B2: 5738-13-R2A-H4 (scFv, part only; not given: linker and His-Flag tag, V domains shown, not shown: another chain or arm of the molecule; small tags and cut ends)
VH: EVKLVESGGGLVQPGRSLKLSCAASGFTFSNYYMAWVRQAPTKGLEWVAYITNGFGSTYYRDSVKGRFTISRDNAKSTLYLQMDSLRSEDTATYYCSTVPLGAFVSWGQGTLVTVSS
VL: DIQMTQTPHSLSASLGETVSIECLASEGISNYLAWYQQKPGKSPQLLISYANPLHDGVPSRFSGSGSGTQFSLKIRNMQPEDEGVYYCQQGYKFPYTFGAGTKLELT
MFI [7]: 2210 | percentage of positive cells [7]: 12.5% | MFI [8]: 980 | percentage of positive cells [8]: 2.5% | MFI [9]: 1480 | percentage of positive cells [9]: 0.39% | MFI [10]: 5020 | percentage of positive cells [10]: 40% | MFI [11]: 1310 | percentage of positive cells [11]: 0.58% | MFI [12]: 891 | percentage of positive cells [12]: 4.88%

B3: 5738-10-R3A-D5 (scFv, part only; not given: linker and His-Flag tag, V domains shown, not shown: another chain or arm of the molecule; small tags and cut ends)
VH: EVQLQQSGAELAKPGSSVKISCKASGYTFTSYYISWIKQTTGQGLEYIGYINTGSGGTNYNEKFKGKATLTVDKSSSTAFMQLSSLTPDDSAVYYCARDKWVDWGQGVMVTVSS
VL: DILMTQSPSSMSVSLGDTVTITCRASQDVGIYVNWFQQKPGKPPRRMIYRATNLADGVPSRFSGSRSGSNYSLTIRSLESEDVADYHCLQYDEWPYTFGAGTKLELK
MFI [7]: 1380 | percentage of positive cells [7]: 6.57% | MFI [8]: 632 | percentage of positive cells [8]: 0.07% | MFI [9]: 1440 | percentage of positive cells [9]: 0.06% | MFI [10]: 3500 | percentage of positive cells [10]: 22.3% | MFI [11]: 1250 | percentage of positive cells [11]: 0.08% | MFI [12]: 1040 | percentage of positive cells [12]: 4.81%

B4: 5738-10-R4A-G11 (scFv, V domains shown)
VH: QVQLQQPRAELAKPGSSVKISCKASGYTFTNYSISWIKQTTGQGLEYIGYIYPGSGDTNYNEKFKGKATLTVDKSSSTAFMQLSSLTPDDSAVYYCARYFDHWGQGTLVTVSS
VL: B3 VL with P43S, N53T, N70D, R76S, W94Y, Y96P, A100S, L106I
notes: anti-hDEP1 scFv, rat 10 library, format VH/VL-6xHis-Flag
binding result (hDEP1 Peptide #4): binds

B5: 5738-10-R4A-E7 (scFv, V domains shown)
VH: QVQLKQSGVELAKPGSSVKISCKASGYTFTSDSISWIKQTTGQGLEYIGYIHPGSGVTNYNEKFKGKATLTVDKSSSTAFMQLSSLTPDDSAIYYCARYFDYWGQGVMVTVSS
VL: B3 VL with K39I, P43S, M47L, N70D, R76A, W94F, Y96P, A100S, L106I
notes: as for B4
binding result (hDEP1 Peptide #4): binds

B6: 5738-10-R4A-E9 (scFv, V domains shown)
VH: B5 VH with V9A, D32Y, S33Y
VL: B3 VL with L15Q, P43S, Y49H, N70D, R76T, W94Y, Y96P, A100S, K103N, L106I
notes: as for B4
binding result (hDEP1 Peptide #4): binds

B7: 5738-10-R4A-F12 (scFv, V domains shown)
VH: B5 VH with Q1E, K5Q
VL: B3 VL with P43S, Y49H, N70D, R76S, W94Y, Y96P, A100S, L106I
notes: as for B4
binding result (hDEP1 Peptide #4): binds

B8: 5738-10-R4A-G4 (scFv, V domains shown)
VH: B5 VH with Q1E, K5Q, K65R
VL: B3 VL with L3V, P43S, N70D, R76A, W94F, Y96P, A100S, L106I
notes: as for B4
binding result (hDEP1 Peptide #4): binds

B9: 5826-13-R4A-H5 (scFv, part only; not given: linker and His-Flag tag, V domains shown, not shown: another chain or arm of the molecule; large carriers; small tags and cut ends)
VH: EVQLQQSGAGLTKPGGSVKISCKVSGYTFTTYDIGWLKQRPGQALEWIGSINPGGGGTGYNEKFKGKATLTVDKSSSTAFMQLSSLTPEDTAVYYCARPLRRVLDYWGQGVLVTVSS
VL: DIQLTQSPSSLPASLGERVTISCRASQGISNKLNWYQQKPDGTIKPLIYYTSNLQSGVPSRFSGSGSGTDYSLTISSLEPEDFAMYYCQQDASFPPTFGGGTKLELK
MFI [1]: 10900 | percentage of positive cells [1]: 61.9% | MFI [2]: 1940 | percentage of positive cells [2]: 8.13% | MFI [3]: 10100 | percentage of positive cells [3]: 66.5% | MFI [4]: 16700 | percentage of positive cells [4]: 79.5% | MFI [5]: 3650 | percentage of positive cells [5]: 11% | MFI [6]: 574 | percentage of positive cells [6]: 0.01%
